The supplement of paper PMC10567573

B1: SOAT2 (parent)
chain: SLGKQKVFIIRKSLLDELMEVQHF
B2: CDC25A (parent)
chain: KPIVPTDGKRVIVVFHCEFSSERG

Variants of: B1
Assay: protein stability index of a GFP-peptide fusion (GPS, HEK-293T) (PSI 1-6); higher = more stable
Conditions: c terminus: a fixed tail appended
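Note: lentivirally expressed fusions sorted by FACS into six bins by GFP to DsRed ratio, PSI derived from sequencing read proportions per bin multiplied by bin number.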

Variant	protein stability index
SLGKQKVRIIRKSLLDELMEVQHF [F8R]	2.36
SLGKQKVHIIRKSLLDELMEVQHF [F8H]	1.71
SLGKQKVGIIRKSLLDELMEVQHF [F8G]	1.93
SLGKQKVYIIRKSLLDELMEVQHF [F8Y]	3.07
SLGKQKVIIIRKSLLDELMEVQHF [F8I]	2.15
SLGKQKVCIIRKSLLDELMEVQHF [F8C]	2.49
SLGKQKVAIIRKSLLDELMEVQHF [F8A]	1.76
SLGKQKVDIIRKSLLDELMEVQHF [F8D]	2.12
SLGKQKVKIIRKSLLDELMEVQHF [F8K]	1.88
SLGKQKVPIIRKSLLDELMEVQHF [F8P]	1.66
SLGKQKVQIIRKSLLDELMEVQHF [F8Q]	1.97
SLGKQKVTIIRKSLLDELMEVQHF [F8T]	1.32
SLGKQKVNIIRKSLLDELMEVQHF [F8N]	1.5
SLGKQKVVIIRKSLLDELMEVQHF [F8V]	1.6
SLGKQKVWIIRKSLLDELMEVQHF [F8W]	2.79
SLGKQKVMIIRKSLLDELMEVQHF [F8M]	1.58
SLGKQKVLIIRKSLLDELMEVQHF [F8L]	2.02
SLGKQKVEIIRKSLLDELMEVQHF [F8E]	2.58
SLGKQKVSIIRKSLLDELMEVQHF [F8S]	2.03

Variant	protein stability index
SLGKQRVFIIRKSLLDELMEVQHF [K6R]	2.74
SLGKQSVFIIRKSLLDELMEVQHF [K6S]	2.46
SLGKQWVFIIRKSLLDELMEVQHF [K6W]	2.47
SLGKQVVFIIRKSLLDELMEVQHF [K6V]	1.81
SLGKQFVFIIRKSLLDELMEVQHF [K6F]	2.71
SLGKQQVFIIRKSLLDELMEVQHF [K6Q]	2.98
SLGKQNVFIIRKSLLDELMEVQHF [K6N]	1.6
SLGKQGVFIIRKSLLDELMEVQHF [K6G]	1.99
SLGKQAVFIIRKSLLDELMEVQHF [K6A]	2.08
SLGKQIVFIIRKSLLDELMEVQHF [K6I]	3.06
SLGKQLVFIIRKSLLDELMEVQHF [K6L]	2.24
SLGKQTVFIIRKSLLDELMEVQHF [K6T]	3.25
SLGKQYVFIIRKSLLDELMEVQHF [K6Y]	2.67
SLGKQHVFIIRKSLLDELMEVQHF [K6H]	1.97
SLGKQMVFIIRKSLLDELMEVQHF [K6M]	3.33
SLGKQCVFIIRKSLLDELMEVQHF [K6C]	3.68
SLGKQEVFIIRKSLLDELMEVQHF [K6E]	2.05
SLGKQPVFIIRKSLLDELMEVQHF [K6P]	1.96
SLGKQDVFIIRKSLLDELMEVQHF [K6D]	1.67

Variant	protein stability index
SLYKQKVFIIRKSLLDELMEVQHF [G3Y]	2.76
SLAKQKVFIIRKSLLDELMEVQHF [G3A]	2.12
SLFKQKVFIIRKSLLDELMEVQHF [G3F]	2.29
SLPKQKVFIIRKSLLDELMEVQHF [G3P]	1.76
SLNKQKVFIIRKSLLDELMEVQHF [G3N]	2.07
SLDKQKVFIIRKSLLDELMEVQHF [G3D]	2.12
SLIKQKVFIIRKSLLDELMEVQHF [G3I]	3.27
SLLKQKVFIIRKSLLDELMEVQHF [G3L]	2.29
SLWKQKVFIIRKSLLDELMEVQHF [G3W]	2.5
SLVKQKVFIIRKSLLDELMEVQHF [G3V]	2.97
SLEKQKVFIIRKSLLDELMEVQHF [G3E]	1.94
SLKKQKVFIIRKSLLDELMEVQHF [G3K]	1.74
SLSKQKVFIIRKSLLDELMEVQHF [G3S]	2.73
SLHKQKVFIIRKSLLDELMEVQHF [G3H]	3.41
SLMKQKVFIIRKSLLDELMEVQHF [G3M]	3.27
SLTKQKVFIIRKSLLDELMEVQHF [G3T]	2.83
SLCKQKVFIIRKSLLDELMEVQHF [G3C]	3.08
SLRKQKVFIIRKSLLDELMEVQHF [G3R]	2.98

Variants of: B2
Assay: as above
Conditions: c terminus: a fixed tail appended

Variant	protein stability index
KPIVPTDGKRVIVVFHCEFLSERG [S20L]	2.5
KPIVPMDGKRVIVVFHCEFSSERG [T6M]	2.11
KPIVPADGKRVIVVFHCEFSSERG [T6A]	1.44
KPIVPTDGKYVIVVFHCEFSSERG [R10Y]	2.95
KPIVPTDGKRVHVVFHCEFSSERG [I12H]	1.83
KPIVPTDGKRVDVVFHCEFSSERG [I12D]	3.47
KPIVPTDQKRVIVVFHCEFSSERG [G8Q]	1.51
KPIVPTDGKRVIVVFHCEFSRERG [S21R]	1.2
KPIVPTDGKRVIVVFHKEFSSERG [C17K]	2.33
KPIVPTDGKRVIVVFHIEFSSERG [C17I]	2.68
KPIVPTDGKRVIVVFHGEFSSERG [C17G]	1.98
KPIVPTDGKRVIVVFHMEFSSERG [C17M]	1.99
KPIVPTDGKRVIVQFHCEFSSERG [V14Q]	2.24
KPIVPTDGKRVIVIFHCEFSSERG [V14I]	2.56
KPIVPTDGKRCIVVFHCEFSSERG [V11C]	1.57
KPIVPTDGKRKIVVFHCEFSSERG [V11K]	2.51
KPIVPTDGKRVIVVFHCEFSSECG [R23C]	2.82
KPIVPTDGKRVIVVFHCEFSSENG [R23N]	3.72
KPIVPTMGKRVIVVFHCEFSSERG [D7M]	2.53

Variant	protein stability index
KPIVATDGKRVIVVFHCEFSSERG [P5A]	2.63
KPIVLTDGKRVIVVFHCEFSSERG [P5L]	2.4
KPIVPTDGKRVIVVFHCEFSSERK [G24K]	1.44
KPIVPTDGKRVIVVFHCEFSSERQ [G24Q]	3.67
KPWVPTDGKRVIVVFHCEFSSERG [I3W]	4.26
KPIVPTDGQRVIVVFHCEFSSERG [K9Q]	3.32
KPIVPTDGTRVIVVFHCEFSSERG [K9T]	2.66
KPIVPTDGLRVIVVFHCEFSSERG [K9L]	2.69
KPIVPTDGKRVIVVFHCLFSSERG [E18L]	1.76
KPIVPTDGKRVIVVFHCESSSERG [F19S]	2.27
KPIVPTDGKRVIVVFHCENSSERG [F19N]	2
KPIRPTDGKRVIVVFHCEFSSERG [V4R]	3.53
KPIDPTDGKRVIVVFHCEFSSERG [V4D]	2.51
KPIVPTDGKRVIVVQHCEFSSERG [F15Q]	3.78
KPIVPTDGKRVIVVIHCEFSSERG [F15I]	2.73
KPIVPTDGKRVIVVMHCEFSSERG [F15M]	1.61
KPIVPTDGKRVIVVFECEFSSERG [H16E]	1.5
KPIVPTDGKRVIVVFCCEFSSERG [H16C]	2.31
KPIVPTDGKRVIVVFSCEFSSERG [H16S]	3.2
